One block for each binder: values may come before it.
Key:
Experiment in all cases: holdup assay
Set-up in all cases: key: below the threshold = too weak to quantify, mostly under pKd 3.1 to 4
SCRIB_1, Q14160 = target: SCRIB_1, Q14160
LIN7A, O14910 = target: T1, LIN7A, O14910
T1 sequence (O14910 103-200, limits assumed, looked up): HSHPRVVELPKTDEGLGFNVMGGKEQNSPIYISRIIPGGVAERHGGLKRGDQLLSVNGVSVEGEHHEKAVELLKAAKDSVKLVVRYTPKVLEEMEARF

MAST2, Q6P0Q8 = target: MAST2, Q6P0Q8
MPP2, Q14168 = target: T2, MPP2, Q14168
T2 sequence (Q14168 180-250, limits assumed, looked up): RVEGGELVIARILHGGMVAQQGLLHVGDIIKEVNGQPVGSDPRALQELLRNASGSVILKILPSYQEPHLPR

FRMPD4, Q14CM0 = target: FRMPD4, Q14CM0
IL16_3, Q14005 = target: IL16_3, Q14005
APBA2_2, Q99767 = target: T3, APBA2_2, Q99767
T3 sequence (Q99767 654-744, limits assumed, looked up): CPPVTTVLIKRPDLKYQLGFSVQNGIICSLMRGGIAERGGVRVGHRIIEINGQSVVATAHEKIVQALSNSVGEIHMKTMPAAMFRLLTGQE

DLG2_2, Q15700 = target: DLG2_2, Q15700
DLG3_1, Q92796 = target: T4, DLG3_1, Q92796
T4 sequence (Q92796 125-227, limits assumed, looked up): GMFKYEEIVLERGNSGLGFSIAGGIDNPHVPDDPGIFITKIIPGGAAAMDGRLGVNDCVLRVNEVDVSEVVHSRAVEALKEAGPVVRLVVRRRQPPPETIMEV

GRASP, Q7Z6J2 = target: GRASP, Q7Z6J2
APBA1_1, Q02410 = target: T5, APBA1_1, Q02410
T5 sequence (Q02410 651-752, limits assumed, looked up): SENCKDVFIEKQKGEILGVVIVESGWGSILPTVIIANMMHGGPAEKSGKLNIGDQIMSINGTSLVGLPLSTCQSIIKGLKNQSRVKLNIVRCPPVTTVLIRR

MAGI2_6, Q86UL8 = target: MAGI2_6, Q86UL8
MAGI2_4, Q86UL8 = target: MAGI2_4, Q86UL8
GORASP2, Q9H8Y8 = target: GORASP2, Q9H8Y8
PARD3B_1, Q8TEW8 = target: T6, PARD3B_1, Q8TEW8
T6 sequence (Q8TEW8 196-299, limits assumed, looked up): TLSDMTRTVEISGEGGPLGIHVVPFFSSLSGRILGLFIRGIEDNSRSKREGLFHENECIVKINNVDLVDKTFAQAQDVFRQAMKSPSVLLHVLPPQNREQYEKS

SNTA1, Q13424 = target: T7, SNTA1, Q13424
T7 sequence (Q13424 82-180, limits assumed, looked up): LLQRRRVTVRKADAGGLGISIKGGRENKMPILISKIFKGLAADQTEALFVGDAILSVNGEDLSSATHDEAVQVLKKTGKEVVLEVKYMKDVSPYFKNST

DFNB31_3, Q9P202 = target: T8, DFNB31_3, Q9P202
T8 sequence (Q9P202 811-907, limits assumed, looked up): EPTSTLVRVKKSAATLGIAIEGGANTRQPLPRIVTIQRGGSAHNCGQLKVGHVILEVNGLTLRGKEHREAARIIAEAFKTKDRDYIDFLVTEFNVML

FRMPD1, Q5SYB0 = target: T9, FRMPD1, Q5SYB0
T9 sequence (Q5SYB0 52-145, limits assumed, looked up): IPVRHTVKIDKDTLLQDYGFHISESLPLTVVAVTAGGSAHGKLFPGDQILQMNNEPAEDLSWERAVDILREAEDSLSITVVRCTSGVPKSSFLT

GRIP2_7, Q9C0E4 = target: GRIP2_7, Q9C0E4
DFNB31_2, Q9P202 = target: T10, DFNB31_2, Q9P202
T10 sequence (Q9P202 274-371, limits assumed, looked up): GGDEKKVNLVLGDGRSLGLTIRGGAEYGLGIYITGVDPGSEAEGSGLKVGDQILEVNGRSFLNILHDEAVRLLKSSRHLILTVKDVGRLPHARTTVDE

GRIP1_2, Q9Y3R0 = target: T11, GRIP1_2, Q9Y3R0
T11 sequence (Q9Y3R0 145-248, limits assumed, looked up): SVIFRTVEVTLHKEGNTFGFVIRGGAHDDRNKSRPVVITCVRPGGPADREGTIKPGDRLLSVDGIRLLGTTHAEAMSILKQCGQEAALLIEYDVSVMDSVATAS

MAGI1_1, Q96QZ7 = target: MAGI1_1, Q96QZ7
LNX1_2, Q8TBB1 = target: LNX1_2, Q8TBB1
HTRA4, P83105 = target: T12, HTRA4, P83105
T12 sequence (P83105 378-476, limits assumed, looked up): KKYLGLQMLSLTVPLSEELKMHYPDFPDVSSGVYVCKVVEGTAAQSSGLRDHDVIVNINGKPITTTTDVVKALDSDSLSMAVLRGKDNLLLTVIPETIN

HTRA1, Q92743 = target: HTRA1, Q92743
[1] = plain residues with an end cap or a label only (N-terminal biotin on a linker: gsgsgs; C-terminal amide)
[2] = plain residues with an end cap or a label only (N-terminal biotin on a linker: ahx)
[3] = plain residues with an end cap or a label only (N-terminal biotin on a linker: ttds)

Sequence of MAST2, Q6P0Q8 (Q6P0Q8 1099-1202): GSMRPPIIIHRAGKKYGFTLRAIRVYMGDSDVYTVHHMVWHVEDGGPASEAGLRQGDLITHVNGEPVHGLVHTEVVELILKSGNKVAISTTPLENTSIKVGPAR
Sequence of FRMPD4, Q14CM0 (Q14CM0 67-160): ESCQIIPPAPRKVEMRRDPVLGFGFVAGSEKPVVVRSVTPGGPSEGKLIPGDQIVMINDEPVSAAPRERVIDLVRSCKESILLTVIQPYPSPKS
Sequence of SCRIB_1, Q14160 (Q14160 718-814): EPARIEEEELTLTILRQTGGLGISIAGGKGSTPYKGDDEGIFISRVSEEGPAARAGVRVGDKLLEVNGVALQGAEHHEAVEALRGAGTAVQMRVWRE
Sequence of MAGI2_4, Q86UL8 (Q86UL8 772-865): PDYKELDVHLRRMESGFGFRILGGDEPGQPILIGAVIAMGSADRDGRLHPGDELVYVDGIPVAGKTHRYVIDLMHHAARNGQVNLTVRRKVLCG
Sequence of HTRA1, Q92743 (Q92743 360-477): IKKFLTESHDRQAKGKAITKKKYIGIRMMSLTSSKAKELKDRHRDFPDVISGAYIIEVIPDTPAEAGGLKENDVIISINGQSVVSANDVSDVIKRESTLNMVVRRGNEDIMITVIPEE
Sequence of GRIP2_7, Q9C0E4 (Q9C0E4 934-1023): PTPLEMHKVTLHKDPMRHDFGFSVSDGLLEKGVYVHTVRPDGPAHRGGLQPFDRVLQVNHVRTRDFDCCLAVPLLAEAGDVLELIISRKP
Sequence of MAGI1_1, Q96QZ7 (Q96QZ7 1-106): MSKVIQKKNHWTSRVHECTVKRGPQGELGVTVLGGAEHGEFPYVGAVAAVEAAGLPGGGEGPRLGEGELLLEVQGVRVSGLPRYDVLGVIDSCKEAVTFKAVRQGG
Sequence of LNX1_2, Q8TBB1 (Q8TBB1 371-470): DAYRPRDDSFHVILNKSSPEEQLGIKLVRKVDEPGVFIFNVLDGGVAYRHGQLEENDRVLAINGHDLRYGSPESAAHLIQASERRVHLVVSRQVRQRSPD
Sequence of IL16_3, Q14005 (Q14005 1107-1207): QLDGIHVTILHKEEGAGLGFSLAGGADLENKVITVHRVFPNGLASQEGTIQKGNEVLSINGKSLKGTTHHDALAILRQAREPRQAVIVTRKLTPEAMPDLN
Sequence of MAGI2_6, Q86UL8 (Q86UL8 1141-1229): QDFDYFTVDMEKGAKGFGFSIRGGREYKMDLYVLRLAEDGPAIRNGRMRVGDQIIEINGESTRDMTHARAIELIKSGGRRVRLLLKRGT
Sequence of DLG2_2, Q15700 (Q15700 189-283): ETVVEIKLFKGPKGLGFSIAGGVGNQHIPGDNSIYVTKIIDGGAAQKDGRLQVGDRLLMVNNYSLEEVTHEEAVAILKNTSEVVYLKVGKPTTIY
Sequence of GRASP, Q7Z6J2 (Q7Z6J2 96-193): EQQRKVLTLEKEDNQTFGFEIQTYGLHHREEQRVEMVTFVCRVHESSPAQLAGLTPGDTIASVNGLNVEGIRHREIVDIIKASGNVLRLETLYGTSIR

pKd (SCRIB_1, Q14160; [1]): below the threshold
pKd (LIN7A, O14910; [1]): below the threshold
pKd (MAST2, Q6P0Q8; [1]): below the threshold
pKd (MPP2, Q14168; [1]): below the threshold
pKd (FRMPD4, Q14CM0; [1]): below the threshold
pKd (IL16_3, Q14005; [1]): below the threshold
pKd (APBA2_2, Q99767; [1]): below the threshold
pKd (DLG2_2, Q15700; [1]): below the threshold
pKd (DLG3_1, Q92796; [1]): below the threshold
pKd (GRASP, Q7Z6J2; [1]): below the threshold
pKd (APBA1_1, Q02410; [1]): below the threshold
pKd (MAGI2_6, Q86UL8; [1]): below the threshold
pKd (MAGI2_4, Q86UL8; [1]): below the threshold
pKd (GORASP2, Q9H8Y8; [1]): below the threshold
pKd (PARD3B_1, Q8TEW8; [1]): below the threshold
pKd (SNTA1, Q13424; [1]): below the threshold
pKd (DFNB31_3, Q9P202; [1]): 3.83
pKd (FRMPD1, Q5SYB0; [1]): below the threshold
pKd (GRIP2_7, Q9C0E4; [1]): below the threshold
pKd (DFNB31_2, Q9P202; [1]): below the threshold
pKd (GRIP1_2, Q9Y3R0; [1]): below the threshold
pKd (MAGI1_1, Q96QZ7; [1]): below the threshold
pKd (LNX1_2, Q8TBB1; [1]): below the threshold
pKd (HTRA4, P83105; [1]): below the threshold
pKd (HTRA1, Q92743; [1]): below the threshold
B1: ARAP3_int, Q8WWN8 (peptide)
chain: ELIQDTSTSFSTTREW

pKd (SCRIB_1, Q14160; [2]): 4.11
pKd (LIN7A, O14910; [2]): below the threshold
pKd (MAST2, Q6P0Q8; [2]): 4.86
pKd (MPP2, Q14168; [2]): below the threshold
pKd (FRMPD4, Q14CM0; [2]): 3.6
pKd (IL16_3, Q14005; [2]): below the threshold
pKd (APBA2_2, Q99767; [2]): below the threshold
pKd (DLG2_2, Q15700; [2]): 4.07
pKd (DLG3_1, Q92796; [2]): 4.34
pKd (GRASP, Q7Z6J2; [2]): below the threshold
pKd (APBA1_1, Q02410; [2]): below the threshold
pKd (MAGI2_6, Q86UL8; [2]): 4.07
pKd (MAGI2_4, Q86UL8; [2]): 4
pKd (GORASP2, Q9H8Y8; [2]): 4.3
pKd (PARD3B_1, Q8TEW8; [2]): 3.57
pKd (SNTA1, Q13424; [2]): 5.28
pKd (DFNB31_3, Q9P202; [2]): below the threshold
pKd (FRMPD1, Q5SYB0; [2]): below the threshold
pKd (GRIP2_7, Q9C0E4; [2]): below the threshold
pKd (DFNB31_2, Q9P202; [2]): below the threshold
pKd (GRIP1_2, Q9Y3R0; [2]): below the threshold
pKd (MAGI1_1, Q96QZ7; [2]): below the threshold
pKd (LNX1_2, Q8TBB1; [2]): 4.23
pKd (HTRA4, P83105; [2]): 3.53
pKd (HTRA1, Q92743; [2]): 5
B2: TMEM215, Q68D42 (peptide)
chain: QGRWDHETIV

pKd (SCRIB_1, Q14160; [3]): 5.18
pKd (LIN7A, O14910; [3]): below the threshold
pKd (MAST2, Q6P0Q8; [3]): 4.3
pKd (MPP2, Q14168; [3]): below the threshold
pKd (FRMPD4, Q14CM0; [3]): below the threshold
pKd (IL16_3, Q14005; [3]): below the threshold
pKd (APBA2_2, Q99767; [3]): below the threshold
pKd (DLG2_2, Q15700; [3]): below the threshold
pKd (DLG3_1, Q92796; [3]): below the threshold
pKd (GRASP, Q7Z6J2; [3]): below the threshold
pKd (APBA1_1, Q02410; [3]): below the threshold
pKd (MAGI2_6, Q86UL8; [3]): below the threshold
pKd (MAGI2_4, Q86UL8; [3]): below the threshold
pKd (GORASP2, Q9H8Y8; [3]): below the threshold
pKd (PARD3B_1, Q8TEW8; [3]): below the threshold
pKd (SNTA1, Q13424; [3]): below the threshold
pKd (DFNB31_3, Q9P202; [3]): below the threshold
pKd (FRMPD1, Q5SYB0; [3]): below the threshold
pKd (GRIP2_7, Q9C0E4; [3]): below the threshold
pKd (DFNB31_2, Q9P202; [3]): below the threshold
pKd (GRIP1_2, Q9Y3R0; [3]): below the threshold
pKd (MAGI1_1, Q96QZ7; [3]): below the threshold
pKd (LNX1_2, Q8TBB1; [3]): below the threshold
pKd (HTRA4, P83105; [3]): below the threshold
pKd (HTRA1, Q92743; [3]): below the threshold
B3: SLC16A1, P53985 (peptide)
chain: GGPKEEESPV

— publication PMC9482650, “Quantitative fragmentomics allow affinity mapping of interactomes” (Nature Communications, 2022)
